We go through 41 sequences from the nanobody polyreactivity screen of Harvey et al. (2022).

A short description of the data set: yeast display, Sf9 membrane polyspecificity reagent, FACS + sequencing; frameworks hold sequencing errors. Summed up:
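A synthetic nanobody library was expressed on Saccharomyces cerevisiae BJ5465 by galactose induction for 36–48 hours. The library was stained for 1 hour at 4 °C with 10% biotinylated, detergent-solubilized Sf9 membrane reagent and enriched with streptavidin microbeads before FACS. Low and high (top ~1%) gates were set on anti-HA fluorescence for expression and streptavidin fluorescence for reagent binding, and each polyreactivity label reflects the gate of origin.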
As to “QVQLVESGGRLVQAGGSLRLSCAASGSIFDNYVMGWYRQAPGKERELVAAINSSGGSTYYADSVKGRFTISRDNAKNTVYLQMNSLKPEDTAVYYCIATDGITPYDLTDIEFDYWGQGTQVTVSS”, the “polyreactivity (PSR sort gate)” value is on record as “low polyreactivity”.
With “QVQLVESGGRLVQAGGSLRLSCAASGSIFLAYDMGWYRQAPGKERELVAGITSVGTTYYADSVKGRFTISRDNAKNTVYFQMNSLKPEDTAVYYCAAQLYIRNHFRYASTAAYDMGYWGQGTQVTVSS”, the “polyreactivity (PSR sort gate)” value is “low polyreactivity”.
On to “QVQLVESGGRLVQAGGSLRLSCAASGSIFYYYAKGLYRKAPVTARELVAAISTRGGRTYYADSVKGRFTISRDNAKTTVYLQMNSLKPEDTAVYYCNVPYYLPSYLSGYDYWGQGTQVTVSS”, for which the “polyreactivity (PSR sort gate)” value is “low polyreactivity”.
The entry for “QVQLVESGGRLVQAGGSLRLSCAASGSIINVNTMGWYRQAPGKERELVAAISSGGRTYYADSVKGRFTISRDNAKNTVYLQMNSLKPEDTAVYYCNTVLGVYDYDYWGQGTQVTVSS” is “low polyreactivity”; for “QVQLVESGGRLVQAGGSLRLSCAASGSTFAVYAMGWYRQAPGKERELVAAINRSGDSTYYADSVKGRFTISRDNAKNTVYLQMNSLKPEDTAVYYCAVSAWTRSHALYYWGQGTQVTVSS” it is “high polyreactivity”.
In the case of “QVQLVESGGRLVQAGGSLRLSCAASGSTFGSYTMGWYRQAPGKERELVAAINWSGGNTYYADSVKGRFTISRDYAKNTVYLQMNSLKPEDTAVYFCAAAYYIYGFEGDYWGHGTQVTVSS” it was “low polyreactivity”; in that of “QVQLVESGGRLVQAGGSLRLSCAASGSTFSYYDMGGYRQAPGKEMELVADISWSGGSTYYADSVKGRFTISRDNAKNTVYLQMNSLKPEDTAVYYCAARGYVRWYNRYDYWGQGTQVTVSS”, “low polyreactivity”.
In the case of “QVQLVESGGRLVQAGGSLRLSCAASGSTINKYAMGWYRQAPGKERELVAAISRSGGSTNYADSVKGRFTISRDNAKNTVYLQMNSLKPEDNAVYYCNRTRYRSFHYDYWGQGTQVTVSS” it was “high polyreactivity”.
Turning to “QVQLVESGGRLVQAGGSLRLSCAASGYIFERNAMGWYRPAPGKERELVAAITDDGDDTYYADSVKGRFTISRDNEKNTVYLQLYSLKPEDTAVYYCAKDLYYGDYYYWGQGTQVTVSS”, the “polyreactivity (PSR sort gate)” value is on record as “low polyreactivity”.
The entry for “QVQLVESGGRLVQAGGSLRLSCAPSGRTFRWYAMGWYRQSPGKERELVAAISRSGGSTYYADSVKGRFTISRDNAKYTVFLQMNILKPEDTAVYYCANVRYDFKLDYWGQGTQVTVSS” is “high polyreactivity”.
In the case of “QVQLVESGGRLVQAGGSLRLSCDASGRTFGKYALGWYRQAPGKEREFVATITRSGDSTYYADSVKGRFTISRDNAKNTVYLQMNSLKPEDTAVYNCAKDTYGVLSYFQVSREYWGQGTQVTVSS” it was “low polyreactivity”; in that of “QVQLVESGGRLVQAGGSLRLSGAASGRTFAKYAMGWYRQAPGKERELVAAINSSGDSTYYADSVKGRFTISRDNAKNTVYLQMNSLKPEDTAVYYCATRYRSSQWYSPYKYDYWGQGTQVTVSS”, “low polyreactivity”; in that of “QVQLVESGGRLVQAGGSLRLSSAASGRIFASNAMGWYRQAPGKERELVAAIDQGGGSTYYADSVKGRFTISRDNAKNTVYLQMNSLKPEDTAVYYCAADYITAYPRLYNYWGQGTQVTVSS”, “low polyreactivity”.
Take “QVQLVESGGRLVQAGRSLRLSCAASGSIFHDYAMGWYRQAPGKERELVAVISTSGGSTYYADSVKGRFTISRDNAKNTVYCQMNRLKPEDTAFYYCNARTVGPYPSHAALEYDSWGQGTQVTVSS”: the “polyreactivity (PSR sort gate)” value is on record as “low polyreactivity”.
For the sequence “QVQLVESGGRLVQAVASHRLSCAASGSIFRKYALGCYRQAPGKERELVAAIRSSGGSTYYADSVKGRFTISRDNAKNTVYLQMISLIPEDTAVYYCAARYYRPSRYDYWGQGTQVTVSS”, the “polyreactivity (PSR sort gate)” value is on record as “high polyreactivity”.
As to “QVQLVESGGRLVQSGGSLRLSCAASGFIFSYNAMGLYRQAPGKERELVASIRTRGGSTYYADSVKGRFTISRDNAKNSVYLQMNSLKPEDTAVYYCAARPFQRRYDYWGQGTQVTVST”, the “polyreactivity (PSR sort gate)” value is “low polyreactivity”.
The entry for “QVQLVESGGRLVQSGGSLRLSCAASGNTFIPNAMGWYRQAPGKERELVAAIRASGGSTYYADSVKGRFTISRDNAKNTVYLQMNSLKPEDTAVYYCNADIWYKTYDYWGQGTQVTVSS” is “low polyreactivity”.
As to “QVQLVESGGRLVQSGGSLRLSCAPSGSIFLRNAMGWYRQAPGKEREFVASITWNGASTSYADSVKGRFTISRDYAMNTVYLQMNSLKPEDTAVYFCAAVTVQDSNLKYGYWGQGTQVTVSS”, the “polyreactivity (PSR sort gate)” value is on record as “low polyreactivity”.
With “QVQLVESGGRVVQAGGILRLRCAGSGSILVHYAMGWYRQAPGKDRELVAAISRGGSTNYADSVKGRFTISRDNAKNTVYLQMNSLKPEDTAVYYCDARRPWGEYYWGQGTQVTVSS”, the “polyreactivity (PSR sort gate)” value is given as “low polyreactivity”.
Take “QVQLVESGGVLDQAGGSLRLRCAASGSTYYRNAMGWYRQAPGKERELVATINRGGSTYYADSVKWRFTISRDNAKNTVYLQMNSLKPEDPAVYYWAKDPYYAGRYRGDYWGQGTQVTVSS”: the “polyreactivity (PSR sort gate)” value is “high polyreactivity”.
The entry for “QVQLVESGGVLFQAGGSLSLSCAASGLTFPRYAMGWYRQAPGKESELDAAISYRGSRTYYADSVKGRFTISRDNAKNTVYLQMNSLKPEDTAVYYCNKVRPGYGVTYLVGYWGQGTQVTVSS” is “high polyreactivity”; for “QVQLVESGGVLLQAGASLRLSCAASGSIIRSYAMGWYRQAPGKERELVASISRRGGSTYYADSVKGRFTISRDNPKNSVFLQMNSLNPVDTADYYCGAVTTSKFNFWGQGTQVTVSS” it is “low polyreactivity”; for “QVQLVESGGVLLQAGGSLRLSCAASGTIQYIKTMGWYRQAPGKERELVAAITYSGGSTYYADSVKGRFTISRDNAKNTVYLQRNSLKPVVTAVYYCAGDGYYGGYNYWGQGTQVTVSS” it is “low polyreactivity”.
As for “QVQLVESGGVLVQAGGCLRLSCAASGSIFSVNTMGWYRQAPGKERELVATIRTGDSTNYADSVKGRFTISRDNAKNTVYLQMNSLKPEDTAVYYCAAEWSSLNFEYWGQGSQVTVSS”, the “polyreactivity (PSR sort gate)” value is listed as “low polyreactivity”.
The entry for “QVQLVESGGVLVQAGGRLRLSCAASVFGRYAMGWYRQAPGKEREMVARISSSCGSTHYADSVKGRFTISRDNAKNTVYLEMNSLKPEDTAVYYCAARSYDTYWWYGYWGQGTQVTVSS” is “high polyreactivity”; for “QVQLVESGGVLVQAGGSIRLSCAASGRIIYKNAMGWYRQAPGKERELVAAITSSGGSTYYADSVKGRFTISRDNAKITVYFQMNSLKPEDTAVYYCAAYAYGRFGKLNYWGQGTQVTVSS” it is “low polyreactivity”.
Regarding “QVQLVESGGVLVQAGGSLPLSCAASGSIFGSYAMGWSRQAPGKERELVAAIRWSGGSTRYADSVKGRFTISRDIAKNRVYLHMNSLKPEDTAVYYCAAVWRYLGYTSMDYWGQGTQVTVSS”, the “polyreactivity (PSR sort gate)” value is given as “low polyreactivity”.
In the case of “QVQLVESGGVLVQAGGSLRFSCAASGFFFSSNAIGWYRQAPGKERELVAAISRSVGSTYYADSVKGRFTISRDNAKNTVYLQMNSLKPEDTAVYYCAARIGSYRKYRYDYWGQGTQVTVSS” it was “high polyreactivity”; in that of “QVQLVESGGVLVQAGGSLRLSCAASEIIFTFYAMAWYRQAPGKEMELVAAITSSGGRTYYADSVKGRFTISRDNAKNTVYLQMNSLKPEDTAVYYCAARLPGYVRKYDYWGQGTQVTVSW”, “high polyreactivity”.
Take “QVQLVESGGVLVQAGGSLRLSCAASGNAMGWYRQAPGKERELVAAITRRGGSTYYADSVKGRFTISRDNAKNTVYLQINSLIPEDTAVYYCAADNPSYNLWYGYWGQGTQVTVSS”: the “polyreactivity (PSR sort gate)” value is given as “low polyreactivity”.
In the case of “QVQLVESGGVLVQAGGSLRLSCAASGRIFPGYVMGWYRQAHGKERELVAAITRGGSTYYADSVKGRFTISRDNAKNTVYLQMNSLKPEDTAVYYCAAKHSHIHYNYWGQGTQVTVSS” it was “low polyreactivity”.
The entry for “QVQLVESGGVLVQAGGSLRLSCAASGRIFPSYDMGWYRQAPAKERELVDTISTRGDSTYYADSVKGRFTISRDNAKNTVYLQMNSQKPEDTAVYYCAAERPFWEYDYWGQGTQVTVSS” is “low polyreactivity”.
The entry for “QVQLVESGGVLVQAGGSLRLSCAASGRIFRANTMGWYRQAPGKEMELVANISKNGGRTYYADSVKGRFTISRDNAKNTVYLQMNSLKPEDTAVYYFNAEWRGWRFLEYGSYIYQSGYWGQGTQVTVSS” is “high polyreactivity”; for “QVQLVESGGVLVQAGGSLRLSCAASGRIFRYNTMGWDRQAPGKERELVATITRGSSTNYADSVKGRFTISRDNAKNTVYLQMNSLKPEDTAVYYCAASVWKWHSYLGRYSYIGYDYWGQGTQVTVSS” it is “high polyreactivity”; for “QVQLVESGGVLVQAGGSLRLSCAASGRIIDLNAMGWYREAPGKQRDFVAGITDGGSTYYADSVKGRFTISRDNAKNTVYLQMNSLKPEDTAVDYCAADVYDYLSEFQAFVEEAGYYWGQGTQVTVSS” it is “low polyreactivity”.
For “QVQLVESGGVLVQAGGSLRLSCAASGRTFHDYAMGWYRQAPGKERELVASISSGGSTYYADSVKGRFTISRDNAKNTDYLQMNSLKPEDTAVYYCAAYYYYTLYYRYDYWGQGTQVNVSS”, the “polyreactivity (PSR sort gate)” value was “low polyreactivity”.
In the case of “QVQLVESGGVLVQAGGSLRLSCAASGSIFDKAMGWSRQAPGKERELVSAITSGGITNYADSVKGRFTISRDNAKNTVYLQMNRLKPEDCAVYYCNTLSPTQTKYDYWGQGTQVSVSS” it was “low polyreactivity”.
The entry for “QVQLVESGGVLVQAGGSLRLSCAASGSIFFYYAMGWYRQAPGKERELVAAITFTGGSTYYADSVKGRFTISRDNAKNTVYLQMKSLKPEDTAVYYCAADWYYGDEYEYWGQGTQVTVSS” is “high polyreactivity”.
The entry for “QVQLVESGGVLVQAGGSLRLSCAASGSIFNYYAMGWYRQAPGKERELVAGITTSGGSTYYADSVKARFTISRDNEKNSVYLQMNSLTPEDTAVYYCAAYDYISSTYFLDDYWGQGTQVTVSS” is “low polyreactivity”.
Take “QVQLVESGGVLVQAGGSLRLSCAASGSIFSAYVMGWYRQAPGKERELVAAINRGGNTYYADSVKGRFTISRDNAKNTVYLQMNSLKPEDTAVYYCNAQWYYLRYRYDYWGQGTQVTVSS”: the “polyreactivity (PSR sort gate)” value is on record as “high polyreactivity”.
As to “QVQLVESGGVLVQAGGSLRLSCAASGSTFVTNAMGWYRQAPGKEREFVAAISNSSGSTYYADSVKGRFTISRDNAKNTVYLQMNSLKPEDTAVYYCNATPDDWLQEDYWGQGTQVTVSS”, the “polyreactivity (PSR sort gate)” value was “low polyreactivity”.
